The source of these data is patent publication US11319530B2, “Host cells and systems for membrane protein expression” (President and Fellows of Harvard College, priority 2015, dated 2022).

To fix the notation:
T1: rat VKORc1ΔAAR expressed in FSH231 (Rattus norvegicus, UniProt Q6TEK4, DEL31-33)
T1 construct: expressed in transfected cells; host or cells: E. coli FSH231 (ΔdsbB, yidCT362I, hslVC160Y, malF-lacZ102 reporter), pTrc99a plasmid
T1 sequence (Q6TEK4 with tags, fused parts or gaps DEL31-33): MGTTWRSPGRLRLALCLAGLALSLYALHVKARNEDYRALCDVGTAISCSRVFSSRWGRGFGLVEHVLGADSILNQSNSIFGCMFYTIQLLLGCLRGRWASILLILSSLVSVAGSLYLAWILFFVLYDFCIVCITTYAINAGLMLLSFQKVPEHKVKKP

T2: VKORc1ΔAAR, G60D (Rattus norvegicus, UniProt Q6TEK4, C16A/C85A/C96A/DEL31-33/G60D)
T2 construct: expressed in transfected cells; host or cells: E. coli FSH231 (ΔdsbB, yidCT362I, hslVC160Y), pTrc99a plasmid, co-transformed with pBAD43 (empty, or carrying DsbA or DsbAC33A)
T2 sequence (Q6TEK4 with tags, fused parts or gaps C16A/DEL31-33/G60D/C85A/C96A): T1 sequence (Q6TEK4 with tags, fused parts or gaps DEL31-33) with C16A, G57D, C82A, C93A

B1: T7-tagged rat VKORc1ΔAAR, G60D lacking all nonessential cysteines (pFH436: rat VKORc1 C16A ΔA31AR G60D C85A C96A-linker-T7 tag) (enzyme)
chain: MGTTWRSPGRLRLALALAGLALSLYALHVKARNEDYRALCDVGTAISCSRVFSSRWDRGFGLVEHVLGADSILNQSNSIFGAMFYTIQLLLGALRGRWASILLILSSLVSVAGSLYLAWILFFVLYDFCIVCITTYAINAGLMLLSFQKVPEHKVKKPGTGGGSGGGSGS
notes: Expressed in E. coli FSH231 (ΔdsbB, yidCT362I, hslVC160Y); not shown: C-terminal T7 tag
B2: rat VKORc1 C16A C51A ΔA31AR G60D C85A C96A C132A-linker-T7 tag (pFH440) (enzyme)
chain: B1 chain with C48A, C129A
notes: also called VKORc1 with removal of C132 accompanied by the removal of C51; not shown: C-terminal T7 tag
B3: rat VKORc1 C16A C51A ΔA31AR G60D C85A C96A-linker-T7 tag (pFH438) (enzyme)
chain: B1 chain with C48A
notes: also called VKORc1 lacking C51; not shown: C-terminal T7 tag
B4: rat VKORc1 C16A ΔA31AR G60D C85A C96A C132A-linker-T7 tag (pFH439) (enzyme)
chain: B1 chain with C129A
notes: also called VKORc1 in the absence of C132; not shown: C-terminal T7 tag
B5: FLAG-tagged E. coli DsbAC33A (pFH442: pFH441 C33A-FLAG) (enzyme, UniProt P0AEG4 20-208, looked up)
chain: AQYEDGKQYTTLEKPVAGAPQVLEFFSFFCPHAYQFEEVLHISDNVKKKLPEGVKMTKYHVNFMGGDLGKDLTQAWAVAMALGVEDKVTVPLFEGVQKTQTIRSASDIRDVFINAGIKGEEYDAAWNSFVVKSLVAQQEKAAADVQLRGVPAMFVNGKYQLNPQGMDTSNMDVFVQQYADTVKYLSEKK
notes: by common usage C33 of DsbA is counted on the mature (periplasmic) protein, not on the precursor; Expressed from pBAD43 in E. coli; also called C33A mutant of DsbA; not shown: FLAG tag
B6: DsbAC33A: C33A mutant of E. coli DsbA, expressed from pBAD43; forms mixed disulfide with VKORc1 (protein)
chain: B5 chain
modifications: left off: small tags and cut ends

Series [1] has as its target T1, rat VKORc1ΔAAR expressed in FSH231. In words: blue/white agar assay in 384 well plates using the β-Gal^dbs reporter (dose-dependent inhibition of VKORc1). The series is classed as cell-based. To be noted: FIG. 4 Panel A; for dose-dependent inhibition of VKORc1: rat VKORc1ΔAAR expressed in E. coli FSH231 (ΔdsbB, yidCT362I, hsIVC160Y).
The target in series [2] is B5. In words: non-reducing SDS-PAGE of TCA-precipitated proteins of FSH231, immunoblot with anti-T7 or anti-FLAG; mixed disulfide.
For series [3], the target named is B5. The experiment in a line: non-reducing SDS-PAGE immunoblot; mixed disulfide.
Series [4] addresses B5. In words: non-reducing SDS-PAGE of TCA-precipitated proteins of FSH231, immunoblot with anti-T7 or anti-FLAG.
Series [5] deals with the molecule itself. In words: immunoblot, FIG. 4 Panel C. A general note: In western blotting, separated proteins are transferred to a membrane and probed.
Series [6] deals with T2, VKORc1ΔAAR, G60D. In words: motility assay, low agar motility plates of FSH231. It is filed as cell-based. To be noted: FSH231 co-expressing VKORc1ΔAAR, G60D and DsbAC33A, in the presence of DsbAwt; FIG. 4 Panel B. How it is done: Bacterial motility was assayed by stabbing a colony into 0.3% minimal medium Agar plates containing M63 salts, 0.2% Glucose, IPTG, and carbenicillin. Motility was examined after two days of growth at 30 C. When using arabinose to induce expression from pBAD promoter, 0.5% glycerol was used instead of glucose in addition to 0.1% NZ to enhance motility.
As expected, the function of VKORc1ΔAAR in disulfide bond formation was dependent on E. coli DsbA, the presumed substrate of the now functional VKORc1ΔAAR. To determine whether VKORc1ΔAAR interacts directly with DsbA in vivo, we used a C33A mutant of DsbA which forms a detectable stable complex with DsbB and asked whether a similar scenario occurs with VKORc1ΔAAR (23). We used the highly expressed VKORc1ΔAAR, G60D lacking all nonessential cysteines expressed in a ΔdsbB, yidCT362I, hsIVC160Y strain (FSH231). […] When TCA-precipitated proteins of FSH231 strain expressing both T7-tagged VKORc1ΔAAR, G60D and FLAG-tagged DsbAC33A are run on a non-reducing SDS-PAGE and probed by either anti-T7 or FLAG tags antibodies, a VKORc1-DsbA complex band around 40 kDa can be seen (FIG. 4., Panel C) that is DTT-sensitive. The complex formation is also observed when using VKORc1 lacking C51, but disappears in the absence of C46 or C132, unless the removal of C132 is accompanied by the removal of C51 (FIG. 4., Panel C). […]

Numbering of substitutions follows the chain as printed. Names may count otherwise.

With `CC(=O)CC(c1ccccc1)c1c(O)c2ccccc2oc1=O` (stereo not drawn) [warfarin], in series [1], the “dose-dependent inhibition of VKORc1” value is “inhibited”. Take `O=C1c2ccccc2C(=O)C1c1ccc(Br)cc1` [bromindione]: the “dose-dependent inhibition of VKORc1” value in series [1] is reported as “inhibited”. Besides, the “inhibitory effect compared with warfarin” value in series [1] (rat VKORc1ΔAAR expressed in E. coli FSH231) was “stronger inhibitory effects than warfarin”. B1: the binding result in series [2] is recorded as “binds”. Regarding B2, in series [3], the binding result is recorded as “binds”. As to B3, in series [3], the binding result was “binds”. For the molecule B4, the binding result in series [4] is on record as “no binding”. As to B5, the binding result in series [5] is recorded as “binds”. Regarding B6, in series [6], the “inhibition of VKORc1 function (motility)” value was “inhibits the function of VKORc1”.
